Target: full-length JDP2 protein fused to the yeast GAL4 DNA-binding domain (GAL4-DBD-JDP2) (rat, UniProt Q78E65 1-163)
Assay: two-hybrid

Sequence of full-length JDP2 protein fused to the yeast GAL4 DNA-binding domain (GAL4-DBD-JDP2) (Q78E65 whole entry, the tested form may be a part): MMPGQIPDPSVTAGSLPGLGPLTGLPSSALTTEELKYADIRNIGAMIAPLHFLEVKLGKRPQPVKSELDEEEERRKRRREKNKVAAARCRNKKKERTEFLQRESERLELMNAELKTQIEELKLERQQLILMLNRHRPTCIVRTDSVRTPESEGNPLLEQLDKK

fold potentiation of the 5 × UAS luciferase reporter (two-hybrid): 25 fold
B1: wild-type CHOP10 (expression plasmid, in NIH3T3 cells) (natural protein)
chain: MAAESLPFSFGTLSSWELEAWYEDLQEVLSSDENGGTYVSPPGNEEEESKIFTTLDPASLAWLTEEEPEPAEVTSTSQSPHSPDSSQSSLAQEEEEEDQGRTRKRKQSGHSPARAGKQRMKEKEQENERKVAQLAEENERLKQEIERLTREVEATRRALIDRMVNLHQA

— article PMC2441799 (Nucleic Acids Research, 2008)
